Experimental data from publication PMC4157578 (Molecular Cell, 2014).

B1: Mcm7 (subunit of the MCM complex) (natural protein)
chain: MSAALPSIQLPVDYNNLFNEITDFLVTFKQDTLSSDATRNENEDENLDAENIEQHLLEKGPKYMAMLQKVANRELNSVIIDLDDILQYQNEKFLQGTQADDLVSAIQQNANHFTELFCRAIDNNMPLPTKEIDYKDDVLDVILNQRRLRNERMLSDRTNEIRSENLMDTTMDPPSSMNDALREVVEDETELFPPNLTRRYFLYFKPLSQNCARRYRKKAISSKPLSVRQIKGDFLGQLITVRGIITRVSDVKPAVEVIAYTCDQCGYEVFQEVNSRTFTPLSECTSEECSQNQTKGQLFMSTRASKFSAFQECKIQELSQQVPVGHIPRSLNIHVNGTLVRSLSPGDIVDVTGIFLPAPYTGFKALKAGLLTETYLEAQFVRQHKKKFASFSLTSDVEERVMELITSGDVYNRLAKSIAPEIYGNLDVKKALLLLLVGGVDKRVGDGMKIRGDINVCLMGDPGVAKSQLLKAICKISPRGVYTTGKGSSGVGLTAAVMKDPVTDEMILEGGALVLADNGICCIDEFDKMDESDRTAIHEVMEQQTISISKAGINTTLNARTSILAAANPLYGRYNPRLSPLDNINLPAALLSRFDILFLMLDIPSRDDDEKLAEHVTYVHMHNKQPDLDFTPVEPSKMREYIAYAKTKRPVMSEAVNDYVVQAYIRLRQDSKREMDSKFSFGQATPRTLLGIIRLSQALAKLRLADMVDIDDVEEALRLVRVSKESLYQETNKSKEDESPTTKIFTIIKKMLQETGKNTLSYENIVKTVRLRGFTMLQLSNCIQEYSYLNVWHLINEGNTLKFVDDGTMDTDQEDSLVSTPKLAPQTTASANVSAQDSDIDLQDA
B2: Mcm4 (subunit of the MCM complex) (natural protein)
chain: MSQQSSSPTKEDNNSSSPVVPNPDSVPPQLSSPALFYSSSSSQGDIYGRNNSQNLSQGEGNIRAAIGSSPLNFPSSSQRQNSDVFQSQGRQGRIRSSASASGRSRYHSDLRSDRALPTSSSSLGRNGQNRVHMRRNDIHTSDLSSPRRIVDFDTRSGVNTLDTSSSSAPPSEASEPLRIIWGTNVSIQECTTNFRNFLMSFKYKFRKILDEREEFINNTTDEELYYIKQLNEMRELGTSNLNLDARNLLAYKQTEDLYHQLLNYPQEVISIMDQTIKDCMVSLIVDNNLDYDLDEIETKFYKVRPYNVGSCKGMRELNPNDIDKLINLKGLVLRSTPVIPDMKVAFFKCNVCDHTMAVEIDRGVIQEPARCERIDCNEPNSMSLIHNRCSFADKQVIKLQETPDFVPDGQTPHSISLCVYDELVDSCRAGDRIEVTGTFRSIPIRANSRQRVLKSLYKTYVDVVHVKKVSDKRLDVDTSTIEQELMQNKVDHNEVEEVRQITDQDLAKIREVAAREDLYSLLARSIAPSIYELEDVKKGILLQLFGGTNKTFTKGGRYRGDINILLCGDPSTSKSQILQYVHKITPRGVYTSGKGSSAVGLTAYITRDVDTKQLVLESGALVLSDGGVCCIDEFDKMSDSTRSVLHEVMEQQTISIAKAGIITTLNARSSILASANPIGSRYNPNLPVTENIDLPPPLLSRFDLVYLVLDKVDEKNDRELAKHLTNLYLEDKPEHISQDDVLPVEFLTMYISYAKEHIHPIITEAAKTELVRAYVGMRKMGDDSRSDEKRITATTRQLESMIRLAEAHAKMKLKNVVELEDVQEAVRLIRSAIKDYATDPKTGKIDMNLVQTGKSVIQRKLQEDLSREIMNVLKDQASDSMSFNELIKQINEHSQDRVESSDIQEALSRLQQEDKVIVLGEGVRRSVRLNNRV
B3: CBP-Mcm3 (subunit of the MCM complex) (natural protein)
chain: MEGSTGFDGDATTFFAPDAVFGDRVRRFQEFLDTFTSYRDSVRSIQVYNSNNAANYNDDQDDADERDLLGDDDGDDLEKEKKAASSTSLNILPHRIIISLDDLREFDRSFWSGILVEPAYFIPPAEKALTDLADSMDDVPHPNASAVSSRHPWKLSFKGSFGAHALSPRTLTAQHLNKLVSVEGIVTKTSLVRPKLIRSVHYAAKTGRFHYRDYTDATTTLTTRIPTPAIYPTEDTEGNKLTTEYGYSTFIDHQRITVQEMPEMAPAGQLPRSIDVILDDDLVDKTKPGDRVNVVGVFKSLGAGGMNQSNSNTLIGFKTLILGNTVYPLHARSTGVAARQMLTDFDIRNINKLSKKKDIFDILSQSLAPSIYGHDHIKKAILLMLMGGVEKNLENGSHLRGDINILMVGDPSTAKSQLLRFVLNTASLAIATTGRGSSGVGLTAAVTTDRETGERRLEAGAMVLADRGVVCIDEFDKMTDVDRVAIHEVMEQQTVTIAKAGIHTTLNARCSVIAAANPVFGQYDVNRDPHQNIALPDSLLSRFDLLFVVTDDINEIRDRSISEHVLRTHRYLPPGYLEGEPVRERLNLSLAVGEDADINPEEHSNSGAGVENEGEDDEDHVFEKFNPLLQAGAKLAKNKGNYNGTEIPKLVTIPFLRKYVQYAKERVIPQLTQEAINVIVKNYTDLRNDDNTKKSPITARTLETLIRLATAHAKVRLSKTVNKVDAKVAANLLRFALLGEDIGNDIDEEESEYEEALSKRSPQKSPKKRQRVRQPASNSGSPIKSTPRRSTASSVNATPSSARRILRFQDDEQNAGEDDNDIMSPLPADEEAELQRRLQLGLRVSPRRREHLHAPEEGSSGPLTEVGTPRLPNVSSAGQDDEQQQSVISFDNVEPGTISTGRLSLISGIIARLMQTEIFEEESYPVASLFERINEELPEEEKFSAQEYLAGLKIMSDRNNLMVADDKVWRV
B4: Mcm2 (subunit of the MCM complex) (natural protein)
chain: MSDNRRRRREEDDSDSENELPPSSPQQHFRGGMNPVSSPIGSPDMINPEGDDNEVDDVPDIDEVEEQMNEVDLMDDNMYEDYAADHNRDRYDPDQVDDREQQELSLSERRRIDAQLNERDRLLRNVAYIDDEDEEQEGAAQLDEMGLPVQRRRRRRQYEDLENSDDDLLSDMDIDPLREELTLESLSNVKANSYSEWITQPNVSRTIARELKSFLLEYTDETGRSVYGARIRTLGEMNSESLEVNYRHLAESKAILALFLAKCPEEMLKIFDLVAMEATELHYPDYARIHSEIHVRISDFPTIYSLRELRESNLSSLVRVTGVVTRRTGVFPQLKYVKFNCLKCGSILGPFFQDSNEEIRISFCTNCKSKGPFRVNGEKTVYRNYQRVTLQEAPGTVPPGRLPRHREVILLADLVDVSKPGEEVEVTGIYKNNYDGNLNAKNGFPVFATIIEANSIKRREGNTANEGEEGLDVFSWTEEEEREFRKISRDRGIIDKIISSMAPSIYGHRDIKTAVACSLFGGVPKNVNGKHSIRGDINVLLLGDPGTAKSQILKYVEKTAHRAVFATGQGASAVGLTASVRKDPITKEWTLEGGALVLADKGVCLIDEFDKMNDQDRTSIHEAMEQQSISISKAGIVTTLQARCSIIAAANPNGGRYNSTLPLAQNVSLTEPILSRFDILCVVRDLVDEEADERLATFVVDSHVRSHPENDEDREGEELKNNGESAIEQGEDEINEQLNARQRRLQRQRKKEEEISPIPQELLMKYIHYARTKIYPKLHQMDMDKVSRVYADLRRESISTGSFPITVRHLESILRIAESFAKMRLSEFVSSYDLDRAIKVVVDSFVDAQKVSVRRQLRRSFAIYTLGH
B5: Mcm5 (subunit of the MCM complex) (natural protein)
chain: MSFDRPEIYSAPVLQGESPNDDDNTEIIKSFKNFILEFRLDSQFIYRDQLRNNILVKNYSLTVNMEHLIGYNEDIYKKLSDEPSDIIPLFETAITQVAKRISILSRAQSANNNDKDPENTSMDTDSLLLNSLPTFQLILNSNANQIPLRDLDSEHVSKIVRLSGIIISTSVLSSRATYLSIMCRNCRHTTSITINNFNSITGNTVSLPRSCLSTIESESSMANESNIGDESTKKNCGPDPYIIIHESSKFIDQQFLKLQEIPELVPVGEMPRNLTMTCDRYLTNKVIPGTRVTIVGIYSIYNSKNGAGSGRSGGGNGGSGVAIRTPYIKILGIQSDVETSSIWNSVTMFTEEEEEEFLQLSRNPKLYEILTNSIAPSIFGNEDIKKAIVCLLMGGSKKILPDGMRLRGDINVLLLGDPGTAKSQLLKFVEKVSPIAVYTSGKGSSAAGLTASVQRDPMTREFYLEGGAMVLADGGVVCIDEFDKMRDEDRVAIHEAMEQQTISIAKAGITTVLNSRTSVLAAANPIYGRYDDLKSPGDNIDFQTTILSRFDMIFIVKDDHNEERDISIANHVINIHTGNANAMQNQQEENGSEISIEKMKRYITYCRLKCAPRLSPQAAEKLSSNFVTIRKQLLINELESTERSSIPITIRQLEAIIRITESLAKLELSPIAQERHVDEAIRLFQASTMDAASQDPIGGLNQASGTSLSEIRRFEQELKRRLPIGWSTSYQTLRREFVDTHRFSQLALDKALYALEKHETIQLRHQGQNIYRSGV

What was measured:
Test in all cases: SEC
[1] = target: B3
[2] = target: Mcm6 (subunit of the MCM complex) (S. cerevisiae, UniProt P53091 1-1017)
[3] = target: B1

Chain of Mcm6 (subunit of the MCM complex) (P53091 whole entry, one chain of several): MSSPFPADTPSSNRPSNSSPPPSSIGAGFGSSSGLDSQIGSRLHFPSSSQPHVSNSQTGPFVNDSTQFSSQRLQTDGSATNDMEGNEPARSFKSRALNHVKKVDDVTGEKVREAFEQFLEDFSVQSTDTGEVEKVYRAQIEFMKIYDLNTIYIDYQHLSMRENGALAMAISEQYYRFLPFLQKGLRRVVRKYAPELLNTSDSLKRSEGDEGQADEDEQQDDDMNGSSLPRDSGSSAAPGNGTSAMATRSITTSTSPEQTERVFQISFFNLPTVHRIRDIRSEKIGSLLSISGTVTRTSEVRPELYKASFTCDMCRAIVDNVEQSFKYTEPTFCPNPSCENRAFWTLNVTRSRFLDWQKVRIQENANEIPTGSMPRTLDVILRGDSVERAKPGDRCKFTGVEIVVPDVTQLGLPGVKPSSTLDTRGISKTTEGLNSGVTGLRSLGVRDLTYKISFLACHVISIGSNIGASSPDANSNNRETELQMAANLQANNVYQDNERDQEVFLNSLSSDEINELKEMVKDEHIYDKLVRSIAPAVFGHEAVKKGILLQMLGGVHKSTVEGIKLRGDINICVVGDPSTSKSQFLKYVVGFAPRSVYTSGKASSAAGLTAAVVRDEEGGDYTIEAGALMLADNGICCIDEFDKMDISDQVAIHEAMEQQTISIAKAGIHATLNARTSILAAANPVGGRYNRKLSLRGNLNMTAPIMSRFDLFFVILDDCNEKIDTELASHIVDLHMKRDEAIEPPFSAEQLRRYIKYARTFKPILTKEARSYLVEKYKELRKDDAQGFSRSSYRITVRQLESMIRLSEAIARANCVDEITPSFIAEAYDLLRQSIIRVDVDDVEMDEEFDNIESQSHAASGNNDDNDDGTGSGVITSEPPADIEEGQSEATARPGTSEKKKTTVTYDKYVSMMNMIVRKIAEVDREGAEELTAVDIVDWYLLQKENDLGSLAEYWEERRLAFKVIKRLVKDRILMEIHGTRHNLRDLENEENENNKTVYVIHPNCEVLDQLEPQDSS

Binder	binding result [1]	other results
B1	binds	
B2	binds	
B3		binding result [2]: binds
B4	binds	
B5		binding result [3]: binds
